# Test results taken from IntAct's records for PubMed 22927646.
# B1: Isoform 2 of Acid ceramidase (Homo sapiens), Q13510-2 (parent)
# chain: MNCCIGLGEKARGSHRASYPSLSALFTEASILGFGSFAVKAQWTEDCRKSTYPPSGPTYRGAVPWYTINLDLPPYKRWHELMLDKAPVLKVIVNSLKNMINTFVPSGKIMQVVDEKLPGLLGNFPGPFEEEMKGIAAVTDIPLGEIISFNIFYELFTICTSIVAEDKKGHLIHGRNMDFGVFLGWNINNDTWVITEQLKPLTVNLDFQRNNKTVFKASSFAGYVGMLTGFKPGLFSLTLNERFSINGGYLGILEWILGKKDVMWIGFLTRTVLENSTSYEEAKNLLTKTKILAPAYFILGGNQSGEGCVITRDRKESLDVYELDAKQGRWYVVQTNYDRWKHPFFLDDRRTPAKMCLNRTSQENISFETMYDVLSTKPVLNKLTVYTTLIDVTKGQFETYLRDCPDPCIGW
# Variants of: B1
# Conditions: with stf1_human NR5A1, Q13285
# stf1_human NR5A1, Q13285, sequence (Q13285 whole entry): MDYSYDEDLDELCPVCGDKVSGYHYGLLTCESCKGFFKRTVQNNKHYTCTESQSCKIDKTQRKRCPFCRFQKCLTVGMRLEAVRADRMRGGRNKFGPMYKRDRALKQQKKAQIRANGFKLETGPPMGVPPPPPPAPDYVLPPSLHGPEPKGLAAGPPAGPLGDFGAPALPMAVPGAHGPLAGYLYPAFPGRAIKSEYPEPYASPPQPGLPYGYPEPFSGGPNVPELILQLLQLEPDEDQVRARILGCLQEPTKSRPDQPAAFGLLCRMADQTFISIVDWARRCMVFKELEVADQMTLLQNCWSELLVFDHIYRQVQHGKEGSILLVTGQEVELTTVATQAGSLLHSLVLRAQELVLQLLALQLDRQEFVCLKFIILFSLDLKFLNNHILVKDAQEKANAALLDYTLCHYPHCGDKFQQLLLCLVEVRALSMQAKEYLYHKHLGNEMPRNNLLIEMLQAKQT
row,effect of a mutation on the interaction,Variant
1,disrupting interaction strength,L22A;L25A
